Data: US20120301492A1

Each binder was assayed against mouse B6 class I antigens (Mouse MHC Class I; D^b or K^b molecules on the surface of RMA-S cells) (assay: binding of 9-mer peptides within p117-139 to mouse B6 (H-2^b) class I antigens; RMA-S assay as for Table XLVII).

| Binder | Binding Affinity to Mouse MHC Class I |
| --- | --- |
| QARMFPNAP [WT1 peptide P124-132 (…)] | 1% |
| QASSGQARM [WT1 peptide P119-127 (…)] | 2% |
| ASSGQARMF [WT1 peptide P120-128 (…)] | 1% |
| SSGQARMFP [WT1 peptide P121-129 (…)] | 1% |
| SQASSGQAR [WT1 peptide P118-126 (…)] | 2% |
| NAPYLPSCL [WT1 peptide P130-138 (…)] | 79% |
| FPNAPYLPS [WT1 peptide P128-136 (…)] | 1% |
| ARMFPNAPY [WT1 peptide P125-133 (…)] | 1% |
| APYLPSCLE [WT1 peptide P131-139 (…)] | 1% |
| PNAPYLPSC [WT1 peptide P129-137 (…)] | 1% |

The remaining lines, values ahead:

| Binding Affinity to Mouse MHC Class I | Binder |
| --- | --- |
| 2% | PSQASSGQA [WT1 peptide P117-125 (…)] |
| 2% | MFPNAPYLP [WT1 peptide P127-135 (…)] |

What follows are binders tested against mouse B6 class I antigens (Mouse MHC Class I; D^b or K^b molecules on the surface of RMA-S cells) (assay: RMA-S class I stabilisation, flow cytometry with FITC anti-D^b or anti-K^b; % increase of MFI over medium alone, peptide 25 ug/ml).

| Binder | Binding Affinity to Mouse MHC Class I |
| --- | --- |
| GCNKRYFKL [WT1 peptide p329-337 (…)] | 1.2% |
| QMTSQLECM [WT1 peptide p228-236 (…)] | 1.2% |
| SCLESQPAI [WT1 peptide human p136-144 (…)] | 52% |
| YSSDNLYQM [WT1 peptide p221-229 (…)] | 0.8% |

More lines, now with the values ahead:

| Binding Affinity to Mouse MHC Class I | Binder |
| --- | --- |
| 2.2% | ALLPAVPSL [WT1 peptide human p10-18 (…)] |
| 5.8% | NLYQMTSQL [WT1 peptide p225-233 (…)] |
| 33.6% | CMTWNQMNL [WT1 peptide p235-243 (…)] |
| 1% | NQMNLGATL [WT1 peptide p239-247 (…)] |
